Here are results for one molecule from patent US20220259328A1 (Kyowa Kirin, published 2022).

One test concerns the target T1, human CD40-GST (human, UniProt P25942 21-193).
T1 construct: also called human CD40-GST protein; not shown: GST region of the N5 vector
The test can be described thus: phage ELISA on immobilized human CD40-GST, anti-M13-HRP detection. The procedure: (§1) In the ELISA, MAXISORP (manufactured by NUNC, Inc.) in which the human or monkey CD40-GST in Example 1 was immobilized on each well and a portion to which the human or monkey CD40-GST is not bound was blocked using SuperBlock Blockig Buffer (manufactured by Thermo Fisher. Inc.) was used. To each well, each phage clone was added and reacted at room temperature for 30 minutes, and thereafter, each well was washed 3 times with PBS-T.
Background: In an ELISA, binding on a coated surface is turned into a signal by an enzyme label.

Another test addresses T2, monkey CD40-GST (monkey, UniProt P25942 21-193 (human entry)).
T2 construct: also called monkey CD40-GST protein; not shown: GST region of the N5 vector
T2 chain: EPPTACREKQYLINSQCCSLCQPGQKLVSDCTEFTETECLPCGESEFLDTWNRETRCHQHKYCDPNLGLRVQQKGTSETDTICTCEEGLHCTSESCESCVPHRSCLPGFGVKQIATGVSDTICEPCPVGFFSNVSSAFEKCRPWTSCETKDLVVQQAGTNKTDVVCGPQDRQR
The test is described as follows: phage ELISA on immobilized monkey CD40-GST, anti-M13-HRP detection. The procedure: as §1

B1: R1090S55A (monoclonal phage clone displaying scFv) (scFv, V domains shown)
VH: EVQLVQSGAEVKKPGESLKISCKGSGYSFIIYWIGWVRQMPGKGLEWMGIIYPNDADTRYSPSFQGQVTISADKSISTAYLQWSSLKASDTAMYYCVRLGTRDWFDPWGQGTLVTVSS
VL: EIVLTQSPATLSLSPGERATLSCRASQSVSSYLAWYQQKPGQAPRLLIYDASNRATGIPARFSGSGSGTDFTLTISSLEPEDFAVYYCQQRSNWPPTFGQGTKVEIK
notes: also called anti-CD40 antibody R1090S55A
Regarding B1, the binding result with human CD40-GST and with monkey CD40-GST was “binds” each time.
